We go through one molecule from patent publication US20240190983A1 (JULIUS MAXIMILIANS UNIVERSIT T W RZBURG, published 2024).

Test [1] addresses T1, Extracellular domain of TNFR1 with a GPI anchor domain (UniProt P19438 30-211).
T1 construct: extracellular domain; not shown: GPI anchor domain
T1 sequence (looked up): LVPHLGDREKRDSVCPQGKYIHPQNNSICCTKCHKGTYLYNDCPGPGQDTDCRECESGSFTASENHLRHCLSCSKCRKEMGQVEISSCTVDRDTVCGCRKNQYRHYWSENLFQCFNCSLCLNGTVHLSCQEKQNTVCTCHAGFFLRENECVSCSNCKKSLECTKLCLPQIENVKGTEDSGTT
Kind of test: binding of the GpL tagged protein to HEK293 cells transiently transfected with the TNFR1 extracellular domain with GPI anchor; empty-vector cells as non-specific binding. As for the experimental part:
HEK293 cells were transiently transfected with: (i) a TNFR2 expression plasmid; (ii) an expression plasmid encoding the extracellular domain of TNFR1 with a GPI anchor domain; or (iii) empty vector (ev). Next day, the indicated GpL tagged binding molecules were added at the indicated concentration to the cells. After incubation for 1 hour at 37° C., followed by two washes with PBS, the remaining cell bound GpL activity was determined.
An experiment was performed to illustrate the ability of the binding molecules provided to bind TNFR2, but not TNFR1. HEK293 cells were transiently transfected with: (i) a TNFR2 expression plasmid; (ii) an expression plasmid encoding the extracellular domain of TNFR1 with a GPI anchor domain; or (iii) empty vector (ev). […] The proteins indicated in FIG. 27 were added at the indicated concentration to the HEK293 cells. After incubation for 1 hour at 37° C., followed by two washes with PBS, the remaining cell bound GpL activity was determined.

The target in a further test is T2, Murine TNFR2 (mouse, UniProt P25119 23-474).
T2 construct: Expressed on transiently transfected HEK293 cells; also called mouse TNFR2; TNFR2(mu)
T2 sequence: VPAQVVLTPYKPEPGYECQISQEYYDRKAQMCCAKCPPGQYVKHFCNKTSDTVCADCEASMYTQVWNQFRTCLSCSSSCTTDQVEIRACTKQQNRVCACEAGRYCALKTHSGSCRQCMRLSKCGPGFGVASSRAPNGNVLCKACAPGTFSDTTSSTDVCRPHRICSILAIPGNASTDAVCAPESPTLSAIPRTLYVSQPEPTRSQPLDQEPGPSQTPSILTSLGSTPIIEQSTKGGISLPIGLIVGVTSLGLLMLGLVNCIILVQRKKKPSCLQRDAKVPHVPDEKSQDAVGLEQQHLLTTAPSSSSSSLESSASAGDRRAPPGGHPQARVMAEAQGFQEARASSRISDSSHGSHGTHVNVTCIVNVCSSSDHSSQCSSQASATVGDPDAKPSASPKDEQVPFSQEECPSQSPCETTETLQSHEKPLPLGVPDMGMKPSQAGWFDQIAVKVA
Kind of test: equilibrium binding of the GpL fusion protein (label C27-IgG1-LC:GpL) to HEK293 cells transiently transfected with murine TNFR2; empty-vector cells as non-specific binding. The method, then: FIG. 14—Binding of TNFR2-specific antibodies to human, murine and cynomolgus TNFR2. HEK293 cells were transiently transfected with human, murine and cynomologus TNFR2 or empty vector. Equilibrium binding of the indicated anti-TNFR2 antibody GpL fusion proteins were then determined at 37° C. Binding to empty vector transfected cells was determined to obtain unspecific binding values.
Affinity (KD-values) of TNFR2-targeting antibodies to human, cynomolgus monkey, and murine TNFR2 was evaluated by cellular equilibrium binding studies. Therefore, HEK293T cells were transiently transfected with human, cynomolgus or mouse TNFR2 encoding expression plasmids or an empty vector control (EV) using the PEI method. […] Cell associated luciferase activity (RLU; relative light units) was detected with LUmo luminometer (anthos Mikrosysteme GmbH, Friesoythe, Germany) directly after adding 1.5 μM of the substrate coelenterazin (Carl Roth, Karlsruhe, Germany).
The binding properties of anti-TNFR2 antibodies from different clones were assessed. […] Equilibrium binding of the indicated anti-TNFR2 antibody GpL fusion proteins was then determined at 37° C. Binding to empty vector transfected cells was determined to obtain unspecific binding values.

B1: C27-IgG1(N297A)-LC:GpL (antibody)
light: EVKLVPRQLDYKDDDDKELNIVMTQSPKSLSMSVGERVTLNCKASENVKTYVSWYQQKPEQSPKLLIYGASNRYTGVPDRFTGSGSATDFTLTISSVQAEDLADYHCGQSYSYPFTFGAGTKLERKGSEIKRTVAAPSVFIFPPSDEQLKSGTASVVCLLNNFYPREAKVQWKVDNALQSGNSQESVTEQDSKDSTYSLSSTLTLSKADYEKHKVYACEVTHQGLSSPVTKSFNRGECLEKPTENNEDFNIVAVASNFATTDLDADRGKLPGKKLPLEVLKEMEANARKAGCTRGCLICLSHIKCTPKMKKFIPGRCHTYEGDKESAQGGIGEAIVDIPEIPGFKDLEPMEQFIAQVDLCVDCTTGCLKGLANVQCSDLLKKWLPQRCATFASKIQGQVDKIKGAGGD
heavy: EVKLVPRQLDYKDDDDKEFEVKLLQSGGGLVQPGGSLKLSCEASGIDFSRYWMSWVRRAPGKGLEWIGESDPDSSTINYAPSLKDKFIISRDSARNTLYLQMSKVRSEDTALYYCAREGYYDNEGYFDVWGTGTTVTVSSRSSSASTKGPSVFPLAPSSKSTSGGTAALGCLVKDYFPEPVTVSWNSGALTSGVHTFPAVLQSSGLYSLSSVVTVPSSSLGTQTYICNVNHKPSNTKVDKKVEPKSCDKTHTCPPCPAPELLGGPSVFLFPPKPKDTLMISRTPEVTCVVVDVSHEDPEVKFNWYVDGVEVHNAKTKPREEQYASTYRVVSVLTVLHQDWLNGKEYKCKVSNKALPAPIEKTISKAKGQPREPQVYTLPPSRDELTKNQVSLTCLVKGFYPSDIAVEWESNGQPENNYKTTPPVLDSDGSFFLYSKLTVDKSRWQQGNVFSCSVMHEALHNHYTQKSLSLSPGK
notes: copies: 2 + 2
Take B1: the binding result in test [1] is listed as “no binding (tested: 750 ng/ml)”; with Murine TNFR2 it was “no binding (tested: 1000 ng/ml)”.
